According to patent publication US20130195871A1 (AbbVie / Abbott, published 2013):
One block for each binder: values may come before it.

Legend:
[1] = target: T1, Recombinant Human MSP Receptor ECD-His tag (human, UniProt Q04912 25-957); assay: SPR (Biacore)
T1 construct: extracellular domain; bought reagent; also called RON
Description: (§1) The BIACORE assay (Biacore, Inc, Piscataway, N.J.) determined the affinity of antibodies or DVD-Ig proteins with kinetic measurements of on-rate and off-rate constants. Binding of antibodies or DVD-Ig proteins to a target antigen (for example, a purified recombinant target antigen) was determined by surface plasmon resonance-based measurements with a Biacore® 1000 or 3000 instrument (Biacore AB, Uppsala. Sweden) using running HBS-EP (10 mM HEPES [pH 7.4], 150 mM NaCl, 3 mM EDTA, and 0.005% surfactant P20) at 25° C. […] For example, approximately 5000 RU of goat anti-mouse IgG, (Fcγ), fragment specific polyclonal antibody (Pierce Biotechnology Inc, Rockford, Ill.) diluted in 10 mM sodium acetate (pH 4.5) was directly immobilized across a CM5 research grade biosensor chip using a standard amine coupling kit according to manufacturer's instructions and procedures at 25 μg/ml. Unreacted moieties on the biosensor surface were blocked with ethanolamine. Modified carboxymethyl dextran surface in flowcell 2 and 4 was used as a reaction surface. Unmodified carboxymethyl dextran without goat anti-mouse IgG in flow cell 1 and 3 was used as the reference surface. For kinetic analysis, rate equations derived from the 1:1 Langmuir binding model were fitted simultaneously to association and dissociation phases of all eight injections (using global fit analysis) with the use of Biaevaluation 4.0.1 software. Purified antibodies or DVD-Ig proteins were diluted in HEPES-buffered saline for capture across goat anti-mouse IgG specific reaction surfaces. Antibodies or DVD-Ig proteins to be captured as a ligand (25 μg/ml) were injected over reaction matrices at a flow rate of 5 μl/minute. The association and dissociation rate constants, kₒₙ (M⁻¹s⁻¹) and koff (s⁻¹) were determined under a continuous flow rate of 25 μl/minute. Rate constants were derived by making kinetic binding measurements at different antigen concentrations ranging from 10-200 nM. The equilibrium dissociation constant (M) of the reaction between antibodies or DVD-Ig proteins and the target antigen was then calculated from the kinetic rate constants by the following formula: KD=koff/kₒₙ. Binding was recorded as a function of time and kinetic rate constants were calculated.

[2] = target: T2, Recombinant Human ErbB3/FC Chimera-His tag (human, UniProt P21860 20-643); assay: SPR (Biacore), N-terminal VD;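 note: capture of antibodies or DVD-Ig proteins on an anti-mouse IgG chip surface, recombinant antigen injected at 10–200 nM in HBS-EP running buffer at 25 °C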
T2 construct: bought reagent
Description: as §1

Recombinant Human IGF1R = target: T3, Recombinant Human IGF1R (human, UniProt P08069 31-932); assay: SPR (Biacore), N-terminal VD;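 note: capture of antibodies or DVD-Ig proteins on an anti-mouse IgG chip surface, recombinant antigen injected at 10–200 nM in HBS-EP running buffer at 25 °C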
T3 construct: bought reagent
Description: as §1

[3] = target: T1, Recombinant Human MSP Receptor ECD-His …; assay: SPR (Biacore), N-terminal VD;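 note: capture of antibodies or DVD-Ig proteins on an anti-mouse IgG chip surface, recombinant antigen injected at 10–200 nM in HBS-EP running buffer at 25 °C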
Description: as §1

B2: DVD2211 (bispecific antibody)
VH: QVQLQESGPGLVKPSEILSLTCTVSGGSISSHYWSWVRQPPGKGLEWIGYIYYSGSTNYNPSLKSRVTISVDTSKNQFSLNLSSVTAADTAVYYCARIPNYYDRSGYYPGYWYFDLWGRGTLVTVSSASTKGPEVQLVQSGGGLVKPGGSLRLSCAASGFTFSSYAMHWVRQAPGKGLEWVAVISYDGSNKYYADSVKGRFTISRDNSKNTLYLQMNSLRAEDTAVYYCARFSGWPNNYYYYGMDVWGQGTTVTVSS
VL: QAVLTQPSSLSAPPGASASLTCTLRSGFNVDSYRISWYQQKPGSPPQYLLRYKSDSDKQQGSGVPSRFSGSKDASANAGILLISGLQSEDEADYYCMIWHSSAWVFGGGTKLTVLRTVAAPSVFIFPPDVVMTQSPLSLPVTPGEPASISCRSSQSLLHSNGFNYVDWYLQKPGQSPHLLIYFGSYRASGVPDRFSGSGSGTDFTLKISRVEAEDVGVYYCMQALQTPPWTFGQGTKVEIR
notes: DVD-Ig, outer AB034 / inner AB005
- Kd [1]: 15 nM

B3: DVD2213 (bispecific antibody)
VH: QVQLQESGPGLVKPSEILSLTCTVSGGSISSHYWSWVRQPPGKGLEWIGYIYYSGSTNYNPSLKSRVTISVDTSKNQFSLNLSSVTAADTAVYYCARIPNYYDRSGYYPGYWYFDLWGRGTLVTVSSASTKGPSVFPLAPEVQLVQSGGGLVKPGGSLRLSCAASGFTFSSYAMHWVRQAPGKGLEWVAVISYDGSNKYYADSVKGRFTISRDNSKNTLYLQMNSLRAEDTAVYYCARFSGWPNNYYYYGMDVWGQGTTVTVSS
VL: QAVLTQPSSLSAPPGASASLTCTLRSGFNVDSYRISWYQQKPGSPPQYLLRYKSDSDKQQGSGVPSRFSGSKDASANAGILLISGLQSEDEADYYCMIWHSSAWVFGGGTKLTVLRTVAAPDVVMTQSPLSLPVTPGEPASISCRSSQSLLHSNGFNYVDWYLQKPGQSPHLLIYFGSYRASGVPDRFSGSGSGTDFTLKISRVEAEDVGVYYCMQALQTPPWTFGQGTKVEIR
notes: as for B2
- Kd [1]: 18 nM

B7: DVD2281 (bispecific antibody)
VH: EVQLLESGGGLVQPGGSLRLSCAASGFTFSHYVMAWVRQAPGKGLEWVSSISSSGGWTLYADSVKGRFTISRDNSKNTLYLQMNSLRAEDTAVYYCTRGLKMATIFDYWGQGTLVTVSSASTKGPEVQLVQSGAEVKKPGSSVKVSCKASGGTFSSYAISWVRQAPGQGLEWMGGIIPIFGTANYAQKFQGRVTITADKSTSTAYMELSSLRSEDTAVYYCARAPLRFLEWSTQDHYYYYYMDVWGKGTTVTVSS
VL: QSALTQPASVSGSPGQSITISCTGTSSDVGSYNVVSWYQQHPGKAPKLIIYEVSQRPSGVSNRFSGSKSGNTASLTISGLQTEDEADYYCCSYAGSSIFVIFGGGTKVTVLGQPKAAPSSELTQDPAVSVALGQTVRITCQGDSLRSYYATWYQQKPGQAPILVIYGENKRPSGIPDRFSGSSSGNTASLTITGAQAEDEADYYCKSRDGSGQHLVFGGGTKLTVL
notes: DVD-Ig, outer AB116 / inner AB075
- Kd [2]: 6.1 nM
- koff [2]: 0.00024 s⁻¹
- kon [2]: 40000 M⁻¹ s⁻¹

B9: DVD2316 (bispecific antibody)
VH: EVQLVQSGGGLVKPGGSLRLSCAASGFTFSSYAMHWVRQAPGKGLEWVAVISYDGSNKYYADSVKGRFTISRDNSKNTLYLQMNSLRAEDTAVYYCARFSGWPNNYYYYGMDVWGQGTTVTVSSASTKGPEVQLVESGGGLVQPGGSLRLSCAASGFTFTDYTMDWVRQAPGKGLEWVADVNPNSGGSIYNQRFKGRFTLSVDRSKNTLYLQMNSLRAEDTAVYYCARNLGPSFYFDYWGQGTLVTVSS
VL: DVVMTQSPLSLPVTPGEPASISCRSSQSLLHSNGFNYVDWYLQKPGQSPHLLIYFGSYRASGVPDRFSGSGSGTDFTLKISRVEAEDVGVYYCMQALQTPPWTFGQGTKVEIRRTVAAPDIQMTQSPSSLSASVGDRVTITCKASQDVSIGVAWYQQKPGKAPKLLIYSASYRYTGVPSRFSGSGSGTDFTLTISSLQPEDFATYYCQQYYIYPYTFGQGTKVEIK
notes: DVD-Ig, outer AB005 / inner AB080
- Kd [3]: 19 nM
- koff [3]: 0.00089 s⁻¹
- kon [3]: 46000 M⁻¹ s⁻¹

B11: DVD2288 (bispecific antibody)
VH: EVQLVQSGAEVKKPGSSVKVSCKASGGTFSSYAISWVRQAPGQGLEWMGGIIPIFGTANYAQKFQGRVTITADKSTSTAYMELSSLRSEDTAVYYCARAPLRFLEWSTQDHYYYYYMDVWGKGTTVTVSSASTKGPEVQLVESGGGLVQPGGSLRLSCAASGFTFTDYTMDWVRQAPGKGLEWVADVNPNSGGSIYNQRFKGRFTLSVDRSKNTLYLQMNSLRAEDTAVYYCARNLGPSFYFDYWGQGTLVTVSS
VL: SSELTQDPAVSVALGQTVRITCQGDSLRSYYATWYQQKPGQAPILVIYGENKRPSGIPDRFSGSSSGNTASLTITGAQAEDEADYYCKSRDGSGQHLVFGGGTKLTVLGQPKAAPDIQMTQSPSSLSASVGDRVTITCKASQDVSIGVAWYQQKPGKAPKLLIYSASYRYTGVPSRFSGSGSGTDFTLTISSLQPEDFATYYCQQYYIYPYTFGQGTKVEIK
notes: DVD-Ig, outer AB075 / inner AB080
- Kd (Recombinant Human IGF1R): 12 nM
- koff (Recombinant Human IGF1R): 0.00026 s⁻¹
- kon (Recombinant Human IGF1R): 22000 M⁻¹ s⁻¹

Continued, values first:

- Kd [1]: 23 nM
B1: DVD2209 (bispecific antibody)
VH: B2 VH
VL: B3 VL
notes: as for B2

- Kd [1]: 16 nM
- koff [1]: 0.0013 s⁻¹
- kon [1]: 83000 M⁻¹ s⁻¹
B4: DVD2208 (bispecific antibody)
VH: EVQLVQSGGGLVKPGGSLRLSCAASGFTFSSYAMHWVRQAPGKGLEWVAVISYDGSNKYYADSVKGRFTISRDNSKNTLYLQMNSLRAEDTAVYYCARFSGWPNNYYYYGMDVWGQGTTVTVSSASTKGPQVQLQESGPGLVKPSEILSLTCTVSGGSISSHYWSWVRQPPGKGLEWIGYIYYSGSTNYNPSLKSRVTISVDTSKNQFSLNLSSVTAADTAVYYCARIPNYYDRSGYYPGYWYFDLWGRGTLVTVSS
VL: DVVMTQSPLSLPVTPGEPASISCRSSQSLLHSNGFNYVDWYLQKPGQSPHLLIYFGSYRASGVPDRFSGSGSGTDFTLKISRVEAEDVGVYYCMQALQTPPWTFGQGTKVEIRRTVAAPQAVLTQPSSLSAPPGASASLTCTLRSGFNVDSYRISWYQQKPGSPPQYLLRYKSDSDKQQGSGVPSRFSGSKDASANAGILLISGLQSEDEADYYCMIWHSSAWVFGGGTKLTVL
notes: DVD-Ig, outer AB005 / inner AB034

- Kd [1]: 15 nM
- koff [1]: 0.0017 s⁻¹
- kon [1]: 110000 M⁻¹ s⁻¹
B5: DVD2210 (bispecific antibody)
VH: B4 VH
VL: DVVMTQSPLSLPVTPGEPASISCRSSQSLLHSNGFNYVDWYLQKPGQSPHLLIYFGSYRASGVPDRFSGSGSGTDFTLKISRVEAEDVGVYYCMQALQTPPWTFGQGTKVEIRRTVAAPSVFIFPPQAVLTQPSSLSAPPGASASLTCTLRSGFNVDSYRISWYQQKPGSPPQYLLRYKSDSDKQQGSGVPSRFSGSKDASANAGILLISGLQSEDEADYYCMIWHSSAWVFGGGTKLTVL
notes: as for B4

- Kd [1]: 16 nM
- koff [1]: 0.0012 s⁻¹
- kon [1]: 74000 M⁻¹ s⁻¹
B6: DVD2212 (bispecific antibody)
VH: EVQLVQSGGGLVKPGGSLRLSCAASGFTFSSYAMHWVRQAPGKGLEWVAVISYDGSNKYYADSVKGRFTISRDNSKNTLYLQMNSLRAEDTAVYYCARFSGWPNNYYYYGMDVWGQGTTVTVSSASTKGPSVFPLAPQVQLQESGPGLVKPSEILSLTCTVSGGSISSHYWSWVRQPPGKGLEWIGYIYYSGSTNYNPSLKSRVTISVDTSKNQFSLNLSSVTAADTAVYYCARIPNYYDRSGYYPGYWYFDLWGRGTLVTVSS
VL: B4 VL
notes: as for B4

- Kd (Recombinant Human IGF1R): 5.2 nM
- koff (Recombinant Human IGF1R): 0.00013 s⁻¹
- kon (Recombinant Human IGF1R): 25000 M⁻¹ s⁻¹
B8: DVD2282 (bispecific antibody)
VH: EVQLVQSGAEVKKPGSSVKVSCKASGGTFSSYAISWVRQAPGQGLEWMGGIIPIFGTANYAQKFQGRVTITADKSTSTAYMELSSLRSEDTAVYYCARAPLRFLEWSTQDHYYYYYMDVWGKGTTVTVSSASTKGPQVQLQQWGAGLLKPSETLSLTCAVYGGSFSGYYWSWIRQPPGKGLEWIGEINHSGSTNYNPSLKSRVTISVETSKNQFSLKLSSVTAADTAVYYCARDKWTWYFDLWGRGTLVTVSS
VL: SSELTQDPAVSVALGQTVRITCQGDSLRSYYATWYQQKPGQAPILVIYGENKRPSGIPDRFSGSSSGNTASLTITGAQAEDEADYYCKSRDGSGQHLVFGGGTKLTVLGQPKAAPDIEMTQSPDSLAVSLGERATINCRSSQSVLYSSSNRNYLAWYQQNPGQPPKLLIYWASTRESGVPDRFSGSGSGTDFTLTISSLQAEDVAVYYCQQYYSTPRTFGQGTKVEIK
notes: DVD-Ig, outer AB075 / inner AB062

- Kd (Recombinant Human IGF1R): 8.6 nM
- koff (Recombinant Human IGF1R): 0.00021 s⁻¹
- kon (Recombinant Human IGF1R): 25000 M⁻¹ s⁻¹
B10: DVD2278 (bispecific antibody)
VH: EVQLVQSGAEVKKPGSSVKVSCKASGGTFSSYAISWVRQAPGQGLEWMGGIIPIFGTANYAQKFQGRVTITADKSTSTAYMELSSLRSEDTAVYYCARAPLRFLEWSTQDHYYYYYMDVWGKGTTVTVSSASTKGPEVQLVESGGGLVQPGGSLRLSCAASGFTFSIYSMNWVRQAPGKGLEWVSYISSSSSTIYYADSVKGRFTISRDNAKNSLYLQMNSLRDEDTAVYYCARDRGDFDAFDIWGQGTMVTVSS
VL: SSELTQDPAVSVALGQTVRITCQGDSLRSYYATWYQQKPGQAPILVIYGENKRPSGIPDRFSGSSSGNTASLTITGAQAEDEADYYCKSRDGSGQHLVFGGGTKLTVLGQPKAAPDIQMTQSPSSLSASVGDRVTITCQASQDITNYLNWYQQKPGKAPKLLIYDASNLETGVPSRFSGSGSGTDFTFTISSLQPEDIATYNCQQCENFPITFGQGTRLEIK
notes: DVD-Ig, outer AB075 / inner AB063
